Reference: the DeepSol protein solubility set

assay: soluble on expression in E. coli; label from the status in PepcDB or PDB records

| Sequence | soluble on expression in E. coli |
| --- | --- |
| MILIKNGRVMDPKSQRDQVADVLIDGKQIVKIASAIECQEAQVIDASGLIVAPGLVDIHVHFREPGQTHKEDIHTGALAAAAGGVTTVVMMANTNPVISDVETLQEVLASAAKEKIHIYTNASVTQAFNGKDVTDFKALLEAGAVSFSDDGIPLESSKVLKEAFDLANANQTFISLHEEDPQLNGVLGFNEGIAEEHFHFCGATGVAEYSMIARDVMIAYDRQAHVHIQHLSKAESVQVVAFAQQLGAKVTAEVSPQHFSTTEDLLLIAGTSAKMNPPLRTQRDRLAVIEGLKSGVITVIATDHAPHHKDEKTVDDMTKAPSGMTGLETSLSLGLTHLVEPGHLTLMSLLEKMTLNPALLYGFDAGYLAENGPADLVIFADKQERLITENFASKASNSPFIGNKLKGVVKYTIADGEVVYPN | not soluble |
| MGSDKIHHHHHHMKRIRNISVVGMGAVGCAYGRKLYKLNPNNFKIIADDKRKEKLTKNGFLINGEKYDFKCVSPNENLGKDDLIIIAVKYNQLEEAIEEIRNYVGENTIILSFLNGIKSEEEIGKVYGMDKILYSYCVLESTRKGSEVYVSDGYKIVFGQKESDNKYEKIKAVRELFDDAEIDYEIPVDIIHSMWSKFMFNVGINPVSAILKANYGMLQKNKYARETMVSAMMEVINISQKASVNLKIEEINHWLAVLDECELHGKTSMCQDILMGRKTEIDMLSGEVCALGEKYGVDTPVNRTLFNMVKSIE | not soluble |
| MSLSEPILFVDDEQHVLNALQRVFSESGLETVFTRSPIEALELCRSKKFAVIVSDNMMPEMKGIELLTRIKEESPETVKCLLTAHADLDTALQAINSGEVFRFIVKPWRNEELYQAVSEGVARFREGHHHHHTDPNSSSVDKLAAALEHHHHHH | soluble |
| MAAIKANEQDAVGMIVRKQSEFEENSHNFNNNGPSLSDMPIEVIHNIVDYVDPINILVIRKVCRKLRNVLDGDPKFKDVHLHQPTSLDMNFSLELDDSWVDYRTNGSGSGLGLFRNSISKTKTKIFVLKHENENENENGTNCTYGF | soluble |
| MVAVKREFELSHVFKDVSKLEDGNTFYGPEEEHFNVQWRIVLIHQKEDVAVFLRYLHPKNEQAPWKIDSEFTLKLSNSSGKSVTKTGSDIWNSYDALGFCDVFEWDSLLKDYLIDDVIIIEVAVKIKNMSGIPKKKLKSFERSNEEFSDVILAVGDKKFFVLRKFLASHSTYFETLLLGNFAEADKSEVKLQDINSTDFQNLMEVRYGEYAIDEETVDGILHLAHLYDMPFPIKRCEEFLVDSSEKSTKEKLKVAKKYQLENLKASCLAKINTLEEIKAALAGDLDEMDPSVVHALFRKSLALH | not soluble |
| MPHIAHRKNGTYDQSGFNCSLFCSFVQKQGCRTMIQLTTPVENPVIRERLISYANKLFFVGSCFSLEVGSYMRQAGFRTEINPFGIMYNPLSIAGCIGRLLDPVPYQAEELFEYDGLFHSFDHHGAFSHAKKEETLQHLNDSLHVGHEALLRSDRLFFTWGTAFVYNYVSANKVVANCHKLPERLFRRQMVGIDDLLAVWIPLIERLLSSSPDRRIILTVSPVRHLRDGAVGNQQSKATLVLFCKALTGRFPEHLYYFPAYEIMMDELRDYRYYADDMTHPSSLAVSIIRERFADIFVEKDHREAMDACLKLRRRMAHRPLHPDSPDAMLFEAQTQTLVSALLRKYPDLVLDDIAGEMES | not soluble |
| MSLLFLAMAPKPKPWVQTEGPEKKKGRQAGREEDPFRSTAEALKAIPAEKRIIRVDPTCPLSSNPGTQVYEDYNCTLNQTNIENNNNKFYIIQLLQDSNRFFTCWNRWGRVGEVGQSKINHFTRLEDAKKDFEKKFREKTKNNWAERDHFVSHPGKYTLIEVQAEDEAQEAVVKVDRGPVRTVTKRVQPCSLDPATQKLITNIFSKEMFKNTMALMDLDVKKMPLGKLSKQQIARGFEALEALEEALKGPTDGGQSLEELSSHFYTVIPHNFGHSQPPPINSPELLQAKKDMLLVLADIELAQALQAVSEQEKTVEEVPHPLDRDYQLLKCQLQLLDSGAPEYKVIQTYLEQTGSNHRCPTLQHIWKVNQEGEEDRFQAHSKLGNRKLLWHGTNMAVVAAILTSGLRIMPHSGGRVGKGIYFASENSKSAGYVIGMKCGAHHVGYMFLGEVALGREHHINTDNPSLKSPPPGFDSVIARGHTEPDPTQDTELELDGQQVVVPQGQPVPCPEFSSSTFSQSEYLIYQESQCRLRYLLEVHL | soluble |
| HHSVEAPQVKKRMGKFPFVKASKKESEEISKQLHNALDIELPSESTVWLRDKDVWLFPDALEPMIGELRFSRMGIKIAEAHKNGYRWQHQVATALATGAESNAIELTIEEAREWYMGRDVRPQIIPEGLKTGKGEVLVKYQGAIIGLGKWVSNRIKNGLPRELVRDKNLF | not soluble |
| MKIGIIGATGKAGSRILKEALDRGHEVTAIVRNAAKITEENVKVLEKDVFSLTSNDLQAFDVVVNAFGAPAGHDHLHVDAGNVLIEAMKGAPNTKLVVVGGAGSLFVDEEKTTRVFETPGFPEEYLATAQNQGKNLEILQQTNDITWTFISPSALFALGKRTGSYKAGKDNLLVNAKGDSYVSYEDFAVAALDEIENPKHVNERFTVVSEAE | not soluble |
| MAHHHHHHMSTEVSSGSNDGPSFHHHIQDAVHMIWNNQCSEAEEILFPYKEIHPRYALEYANKYLVQTLMNSTNESREILLELFKVADSLASAAKYSEPMFDFDVENDGDGTGMSMCLPSKAERKISKKSFNGRRKAAEKAGQSFVDNWKLECDVIYADALLMRSVCQLMMNSYFKGGVNLRRTWGLYHKLIQVVEADRTNQIPNELKMCVKYGTGAFYAFLALVPANLMRLLNVIGFISDKELGEQYLTEVFESNGVRSPFAALVLCTLYLFLPTGLGRVEETLAKAKRILDAMNQKYEHNTYFYGYSNFYHRKRGETAEALMAIQLAETNAERAGLVPILIRYLHADTLFMDLRFEEARDRYAALLDHLAKTKESFAYTGQVVLSLAACFVMLGDDAQAIQWLKKVGSMYNSRSKNDANSPKFASRVLANPRLLPLCGVYMLYINRDLAHMKVEQAERLLEELTRVTKGKDLSGPEPENMFTLFVGVIHKGCDRIDEAFGYMSKIFANEKRVPNDSMVLPYAYYEAGELEYRRGNYENAKTLFTKGQSLKGDGNETLMNRYNIALKQLKRTMEERKGA | not soluble |
| MCTSLTLETKNGQHLFARTMDFTLDMNQEVIIIPRHYQWNNITGEIINTKHATVGMGINHQGRIIMADGVNEAGMTCATLYFPGFATYSQSIDDNTTNLAPFDFVTWSLTQFNSVKELKKSVDSITFLDIPLPDLGLTPPLHWILADKWGDCIVLDPTSEGLKLYDNPLGVMTNSPEFNWHLQNLRQYIGLKSQPFAPTEWSNLPLSAFGQGSGSMGLPGDFTPPSRFVRAAYGKQNIQGIDSEEEGVSALFHILSNCEVPKGGVITEEGALDNTIYTSVMCMESGTYYYHTYDCRQIIAVHLFHENLDTDEIKAYPFQRKQKIFYEN | not soluble |
| MGSSHHHHHHSSGLVPRGSHMASEVDKRREINNEHPLLMMPLYANGEEFNQGKYTFWGGDTLTGKWENIPDDLKPYTVIQLHPDDLPKRDGAARDFYEHMLEEAAKYVNPKTGKNEPIPVILTVYTAGNMPYYTSAHWLSTSWIDKMYQKYPNLHGIFSTANYWIWANDIENKAADYLKVSAKNGGYFIWAEQNNGSAIEKAFGKNGKIAFQKSVDKYWKNLIFMFKNTPAAEGNDSTTESYMKGLWLSNHTYQWGGLMDTWKWYETGKWKLFASGNIGKSQGDRQWLTEPESMLGEEALGVYLNGGVVYNFEHPAYTYGVNNKESLLFSEVIKEFFRYVIAHPAPSKEKVLEDTKVFIHGDYSNKGNGKFFVNVNTDREQTPLYMTGRYNVIPAIPGVLKTDKLKESVSSSRIQIKEITSPEFSSTQARKEYLNKLYPMNYEGDIFAQKLDNRWFVYNYKVNENVKQTGKLKFNSLEMNVEFEPHTYGIFERISNGLKVNLNNFRTNKDSLWSNAQDANQAKKLPQLTKKGAIKWIEEHYIKDTQFGEKRVTKIVLRGIDKLPTIHSLSGTNNSYDQPSLNFDQKNHMVTITINSNGNLEFELHF | soluble |
| MSASVKESLQLQLLEMEMLFSMFPNQGEVKLEDVNALTNIKRYLEGTREALPPKIEFVITLQIEEPKVKIDLQVTMPHSYPYVALQLFGRSSELDRHQQLLLNKGLTSYIGTFDPGELCVCAAIQWLQDNSASYFLNRKLVYEPSTQAKPVKNTFLRMWIYSHHIYQQDLRKKILDVGKRLDVTGFCMTGKPGIICVEGFKEHCEEFWHTIRYPNWKHISCKHAESVETEGNGEDLRLFHSFEELLLEAHGDYGLRNDYHMNLGQFLEFLKKHKSEHVFQILFGIESKSSDSLEHHHHHH | soluble |
| AIANDEYYLELSENPVQFENASSVNNVFFDEANKQVFAVRSGGATGVVVKGPDDKSSVAFRMDDKGEVKCIKFSLGNKILAVQRTTKSVDFINFIPDYPHLEFSHECKTKNASILGFCWTNWNEIVFVTDQGIEFYQVLPDKRTLKLLKSQSINVNWYIYCPETAVLLLSTTVQGNVLQPFAFKTATMSKMSKFEIELPAVPKPAKLSLSERDIAVATIYDQLYVMYLKHHSRTTNSPGAEVVLYHLPREGTCKRTNVLRLNTTGKFAINVVDNLVVVHHQTTQTSLIYDIKLRELDGNVNVHQPVLPARSINPFKIPLTGPAAAPSQAPLPCELYSSSWSVFQPDIIISASEGFLWYLQVKLQPTLNLLQDKGKLMDFLLRRRDCKMVILSVCSQMLIGGDKGNLSVVATVFDKLNQVYKEYLDAEQAYTAVNEQNSCFTLYLANTYNNM | soluble |
| MDLFKIEANYIDIFNKEIYPASIAIANGHIASIEKINATLDEYVLPGFIDAHIHIESSFLVPSNFAHLVVAHGTVATISDPHEIANVNGIDGINFMINNSKKTEFKFFFGAPSCVPALSQEFETSGYVLNDKDIDELMKLDDIYYLAEVMDFKGVINKDIEIINKINSALKRNKVVDGHAPGLSPNLTLKYASSGISTDHECLTIEDARYKLSLGMKILIREGSAAKNFESLHPLISECSKKYCDSLMFCFDDAHPNDILNGHINLIVARAIKHGHDFFDVLKIACINPVLHYKIPVGLLRIGDPADFIITKDIKTFKINKTYINGKLVFNDGISLIPLINEIPINNFNCSKKSISDFKFSTKNKMIPVIKCISNQIITHKTMIDSNLLAPDFQSNIAEDILKIAIINRYKDNSKISIGFIKNFGIRNGAIGSTVAHDSHNIILVGSNDEYLCKAANTIIQNKGGLCALNNEKTIIMELPISGLMSTLSAERVASQYIKLNDFCKNVLGSRLDDPLMTLSFMSLTVVPHLKINDKGLFDVDSFCFVDYLEHHHHHH | not soluble |
| MPENLQLVIITGMSGAGKTVAVQSFEDMGYFCIDNLPPSLIPKFWELIKESGKVTKIALVIDLRSRTFFREIQDMLVELENTNFIDTTILFLDATDEELVSRYKETRRAHPMAMDGLVTEGIRKERAMLEEIKADAQLVIDTTDLSPRQLRERLNKELATRETHEFRVEMVSFGFKYGLPIDADIVMDVRFLPNPHYIDELRPLTGMDQPVYDYVMGFPETDEFYTKFIDLLRTVLPGYKKEGKSSVTIAIGCTGGQHRSVALTERVGAELKEEDYHVNITHRDRLKRKETVNRS | not soluble |
| SIHSMDKPIESKEGNVSVGKFKLSDSSINNPEEIISVPSSTTEIEKVEMKPGRGEGLNPELLPASVSELLIPSPFQPQIPDGNNSSVEFHPSKVVLIGTAHVSEKSVNEVRSAIRNLKPDIVAVELCRARYDSLKGNVPETNQVPIKEILTEGKVYYYLVHWLLAYVQKKIGEDMGVKPGSEMISAIEEAEASGAKIALIDRDIQVTLQRFWGRMKFTEKIKMLGSLIGGLIGIGKGAEIDIDQITQQDVVTALVSELREFAPTAAETLIDERDAYLAGSILRTAAGGNKTIVAVIGAGHKPGVINYLENPKSLPPLNSLMQIPKKR | not soluble |
| MGHHHHHHSHMSEPLCTSRPVLLPLNLKNIAPGRCISLTPFGHTDNLGFQCETCTDPNLNKSIPPKLEDPAFSKNELCSVTLTFYQQAEQVIQHKQFYLSLLNLSMDAVRNSLTQPGLLYCYLVTKAFMLEGFPIFFEETNGMLGLYLVFRRDLLHLHESYLRLLIDNLGNYDISVDSVGRSYIIKLCPVGNVSRIPTIPADNVCLAVNNLDYGDDVKASWIECFNIVSRLS | soluble |
